# Tests used:
# [1] = test system: Tie2 receptor downstream signaling in HUVEC cells; assay: Western blot of AKT and ERK 42/44 phosphorylation (Tie2 downstream signaling) in HUVEC cells; type: cell-based; settings: 60 nM anti-Ang2 antibody mixed with 40 nM Ang2, 10 minutes, FIG. 1
# Protocol: Ang2 binds to the Tie2 receptor expressed on vascular endothelial cells and acts as a weak agonist or antagonist. Since the anti-Ang2 antibody developed in the present invention binds to Ang2 and forms a complex with Ang2-Tie2, thereby activating the Tie2 receptor and promoting downstream signaling, ERK and AKT phosphorylation experiments were performed to analyze the effect of anti-Ang2 antibodies on Tie2 downstream signaling using a cell-based assay. To compare the degree of activation of Tie2 downstream signaling, the same test was performed on the group treated with Ang2 (Sino Biological) and another Ang2 control antibody (Korean Patent Publication No. 10-2015-0136031).
# Specifically, HUVEC (Lonza) cells (2×10^5) were cultured at 37° C. using EGM-2 (Lonza) medium, and when 80-90% confluency was observed, they were changed to 0.5% FBS Basal media (Lonza) for […]. Cultured at 37° C. for […]. 60 nM of anti-Ang2 antibody was mixed with 40 nM of Ang2 protein (Sino Biological) and left for 30 minutes. Then, the cultured cells were treated and incubated for another 10 minutes. For comparison, groups treated with 40 nM Ang2 and 40 nM Ang2+60 nM anti-Ang2 control antibody were prepared. […]
# [2] = test system: Tie2 downstream signaling (AKT phosphorylation) in HUVEC cells; assay: Phospho-Akt1 (Ser473) sandwich ELISA of Tie2 downstream signaling in HUVEC cells; type: cell-based
# Protocol: To quantitatively analyze the effect of anti-Ang2 antibodies on Tie2 downstream signaling, the level of AKT phosphorylation was measured using ELISA.
# HUVEC (Lonza) cells (2×10^5) were cultured at 37° C. using EGM-2 (Lonza) medium, and when 80-90% confluency was observed, they were changed to 0.5% FBS Basal media (Lonza) and cultured at 37° C. for 16 to 24 hours. 60 nM of anti-Ang2 antibody was mixed with 40 nM of Ang2 protein (Sino Biological) and left for 30 minutes. Then, the cultured cells were treated and incubated for another 10 minutes. For comparison, groups treated with 40 nM of Ang2, 40 nM of Ang2+60 nM of anti-Ang2 control antibody (h10D6-OPTI-67, U.S. Pat. No. 10,934,350) were prepared. The cells were washed with PBS, treated with the lysis buffer, centrifuged at 13,000 rpm for 15 minutes, and the supernatant was recovered to obtain a cell lysate.
# For ELISA, 50 μL of PathScan®Phospho-Akt1 (Ser473) Sandwich ELISA Antibody Pair (Cell signaling) capture antibody diluted 1:100 was added to a 96 well ps half area plate (Greiner cio-one) and coated. Then, the plate was washed four times with PBST (Phosphate Buffer Saline containing 0.05% (v/v) Tween-20) and then blocked with PBST containing 1% (v/v) skim milk at 37° C. for […]. […] Afterwards, 50 μL of Stop solution was added to stop the reaction, and the OD450 value was measured on a plate reader (BioTek).
molecule,measurement,setting,value
"1D3: mouse anti-Ang2 monoclonal antibody; CDRs SEQ ID NO: 18-23, VH SEQ ID NO: 24, VL SEQ ID NO: 25 (antibody, V domains shown, VH; VL) VH: DVQLQESGPGLVKPSQSLSLTCTVTGYSITSDYGWNWIRQFPGNKLEWMGYISYSGTTSYNPSLKSRISITRDTSKNQFFLQLNSVTTEDTATYYCARSEGTGFYAMDYWGQGTSVTVSSAKTTPPKLY VL: SIVMTQTPKFLLVSAGDRVTIICKASQSVSNDVAWYQQKPGQSPKLLIYYASNRYTGVPDRFTGSGYGTDFTFTISTVQAEDLAVYFCQQDYSSPTFGGGTKLEIKRA",AKT and ERK activation signals (western blot) compared to the negative control group,[1],showed AKT and ERK activation signals
same,"Order of AKT phosphorylation curves in FIG. 2, from the curve with the highest value","[2]; HUVEC cells together with Ang2, printed order 1D3, 2C8, 1A9, 1H10, control 67 clone",highest
same,Tie2 downstream signal (AKT phosphorylation ELISA) compared to previously known control antibodies,"[2]; HUVEC cells, antibody together with 40 nM Ang2, OD450, FIG. 2",significantly stronger Tie2 downstream signal

# From US20250340625A1, “ANTIBODY SPECIFICALLY BINDING TO ANGIOPOIETIN-2, OR FRAGMENT THEREOF” (NEORTESBIO INC., priority 2021, published 2025)
